Laboratory results reported in publication PMC12185008, “The PavMYB.C2-UFGT module contributes to fruit coloration via modulating anthocyanin biosynthesis in sweet cherry”.

T1: PavMYB.C2 (Prunus avium (sweet cherry), UniProt A0A6P5T6R9 1-74)
T1 sequence: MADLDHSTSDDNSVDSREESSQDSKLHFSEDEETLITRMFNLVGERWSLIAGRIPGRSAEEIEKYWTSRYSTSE

B1: UFGT promoter MBS3 probe (dsDNA)
DNA 1: TTCACTCCTCGACTCAGCAAGTGGTTATTTAGTGGTAGAGTTTGTTTTGA
DNA 2: TCAAAACAAACTCTACCACTAAATAACCACTTGCTGAGTCGAGGAGTGAA
B2: UFGT promoter MBS2 probe (dsDNA)
DNA 1: TGAGAGAAAGAAATAAAAATCAGAAACAAAGGTAGCGTTTTTCTTTCTTT
DNA 2: AAAGAAAGAAAAACGCTACCTTTGTTTCTGATTTTTATTTCTTTCTCTCA
B3: UFGT promoter MBS1 probe (dsDNA)
DNA 1: GATCGATATTTAGAGAGAGAAACAACCACCCGCGTGATGTGTGAGAGAAA
DNA 2: TTTCTCTCACACATCACGCGGGTGGTTGTTTCTCTCTCTAAATATCGATC

Target: T1, PavMYB.C2
Assay: EMSA; EMSA/Gel-Shift Kit (Beyotime) with LightShift chemiluminescent EMSA kit (Thermo Fisher), standard protocol; buffer, salt, pH and temperature not stated
Settings: protein: recombinant; tags: GST (pGEX-4T-1); label: 3' biotin (Methods); blunt

Binder | binding result
B1 | binds
B2 | no binding
B3 | no binding
